Experimental findings from ChEMBL document CHEMBL2074015, “Effect of ionization on the variable uptake of valacyclovir via the human intestinal peptide transporter (hPepT1) in CHO cells” (Biopharm Drug Dispos, 2000) are described below.

Common to all, as to conditions: CHO
Substrate in data set [1]: CC(C)[C@H](N)C(=O)OCCOCn1cnc2c(=O)nc(N)[nH]c21
Description: TP_TRANSPORTER: uptake (pH 5.5) in PEPT1-expressing CHO cells
Substrate in data set [2]: CC(C)[C@H](N)C(=O)OCCOCn1cnc2c(=O)nc(N)[nH]c21
The source holds these as a separate data set.
Description: TP_TRANSPORTER: uptake (pH 6.8) in PEPT1-expressing CHO cells

Substrate in data set [3]: CC(C)[C@H](N)C(=O)OCCOCn1cnc2c(=O)nc(N)[nH]c21
This is another data set of the same source.
Description: TP_TRANSPORTER: uptake (pH 6.2) in PEPT1-expressing CHO cells

Substrate in data set [4]: CC(C)[C@H](N)C(=O)OCCOCn1cnc2c(=O)nc(N)[nH]c21
This is another data set of the same source.
Description: TP_TRANSPORTER: uptake (pH 7.5) in PEPT1-expressing CHO cells

Substrate in data set [5]: CC(C)[C@H](N)C(=O)OCCOCn1cnc2c(=O)nc(N)[nH]c21
Description: TP_TRANSPORTER: uptake (pH 7.9) in PEPT1-expressing CHO cells
This is another data set of the same source.

B1: Solute carrier family 15 member 1 (Homo sapiens), P46059 (protein)
chain: MGMSKSHSFFGYPLSIFFIVVNEFCERFSYYGMRAILILYFTNFISWDDNLSTAIYHTFVALCYLTPILGALIADSWLGKFKTIVSLSIVYTIGQAVTSVSSINDLTDHNHDGTPDSLPVHVVLSLIGLALIALGTGGIKPCVSAFGGDQFEEGQEKQRNRFFSIFYLAINAGSLLSTIITPMLRVQQCGIHSKQACYPLAFGVPAALMAVALIVFVLGSGMYKKFKPQGNIMGKVAKCIGFAIKNRFRHRSKAFPKREHWLDWAKEKYDERLISQIKMVTRVMFLYIPLPMFWALFDQQGSRWTLQATTMSGKIGALEIQPDQMQTVNAILIVIMVPIFDAVLYPLIAKCGFNFTSLKKMAVGMVLASMAFVVAAIVQVEIDKTLPVFPKGNEVQIKVLNIGNNTMNISLPGEMVTLGPMSQTNAFMTFDVNKLTRINISSPGSPVTAVTDDFKQGQRHTLLVWAPNHYQVVKDGLNQKPEKGENGIRFVNTFNELITITMSGKVYANISSYNASTYQFFPSGIKGFTISSTEIPPQCQPNFNTFYLEFGSAYTYIVQRKNDSCPEVKVFEDISANTVNMALQIPQYFLLTCGEVVFSVTGLEFSYSQAPSNMKSVLQAGWLLTVAVGNIIVLIVAGAGQFSKQWAEYILFAALLLVVCVIFAIMARFYTYINPAEIEAQFDEDEKKNRLEKSNPYFMSGANSQKQM
By Km is commonly meant the substrate concentration at which the rate is half of its maximum. For the protein B1, the Km came to 7.4 mM in data set [1]; 5.4 mM in data set [2]; 6.6 mM in data set [3]; 2.7 mM in data set [4]; 2.2 mM in data set [5].
